This test has as its target PD-L1 on SUP-B15 PD-L1+ cells (UniProt Q9NZQ7 19-290, limits assumed). The experiment in a line: cell-based or functional assay.

Sequence of PD-L1 on SUP-B15 PD-L1+ cells (Q9NZQ7 19-290 limits assumed): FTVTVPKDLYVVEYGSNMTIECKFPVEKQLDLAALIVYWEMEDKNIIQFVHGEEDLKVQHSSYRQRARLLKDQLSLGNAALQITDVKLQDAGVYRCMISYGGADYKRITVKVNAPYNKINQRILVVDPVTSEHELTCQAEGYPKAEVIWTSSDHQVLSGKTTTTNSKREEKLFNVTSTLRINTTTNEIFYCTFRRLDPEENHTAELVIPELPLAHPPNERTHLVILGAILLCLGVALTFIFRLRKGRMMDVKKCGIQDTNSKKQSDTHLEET

B1: PD-L1 CAR expressed on aTGFβ/PD-L1 t-haNK cells (other)
chain: MDWIWRILFLVGAATGAHSAQPANIQMTQSPSSVSASVGDRVTITCRASQDISRWLAWYQQKPGKAPKLLIYAASSLQSGVPSRFSGSGSGTDFALTISSLQPEDFATYYCQQADSRFSITFGQGTRLEIKGGGGSGGGGSGGGGSGGGGSEVQLVQSGGGLVQPGGSLRLSCAASGFTFSSYSMNWVRQAPGKGLEWVSYISSSSSTIQYADSVKGRFTISRDNAKNSLYLQMNSLRDEDTAVYYCARGDYYYGMDVWGQGTTVTVSSAAALSNSIMYFSHFVPVFLPAKPTTTPAPRPPTPAPTIASQPLSLRPEACRPAAGGAVHTRGLDFACFWVLVVVGGVLACYSLLVTVAFIIFWVRLKIQVRKAAITSYEKSDGVYTGLSTRNQETYETLKHEKPPQ
As for B1, the “specific killing of SUP-B15 PD-L1+ target cells, 4 h cytotoxicity assay, effector to target ratio of 8” value is roughly 70%.

The values above are taken from patent publication US20200038441A1 (NANTKWEST, published 2020).
